T1: recombinant human soluble gpNMB (human gpNMB-FLAG-His) (human, UniProt Q14956 23-498)
T1 construct: FLAG and His tags; also called recombinant human gpNMB-FLAG-His
T1 sequence: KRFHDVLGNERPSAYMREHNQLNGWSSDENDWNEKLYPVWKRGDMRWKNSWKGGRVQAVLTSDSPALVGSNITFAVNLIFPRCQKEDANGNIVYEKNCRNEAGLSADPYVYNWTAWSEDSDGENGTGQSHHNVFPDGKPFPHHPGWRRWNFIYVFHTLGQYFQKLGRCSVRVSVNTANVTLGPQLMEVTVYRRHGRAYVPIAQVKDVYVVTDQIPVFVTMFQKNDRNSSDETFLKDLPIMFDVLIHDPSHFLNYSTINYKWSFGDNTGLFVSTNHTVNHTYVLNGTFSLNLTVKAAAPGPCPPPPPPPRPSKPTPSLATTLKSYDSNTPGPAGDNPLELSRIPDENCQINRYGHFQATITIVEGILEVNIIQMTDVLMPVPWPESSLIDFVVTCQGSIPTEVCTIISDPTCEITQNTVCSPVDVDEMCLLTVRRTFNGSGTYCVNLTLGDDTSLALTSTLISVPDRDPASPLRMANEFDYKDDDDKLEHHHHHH

T2: recombinant mouse soluble gpNMB (mouse gpNMB-FLAG-His) (mouse, UniProt Q99P91 23-502)
T2 construct: FLAG and His tags; also called recombinant mouse gpNMB-FLAG-His
T2 sequence: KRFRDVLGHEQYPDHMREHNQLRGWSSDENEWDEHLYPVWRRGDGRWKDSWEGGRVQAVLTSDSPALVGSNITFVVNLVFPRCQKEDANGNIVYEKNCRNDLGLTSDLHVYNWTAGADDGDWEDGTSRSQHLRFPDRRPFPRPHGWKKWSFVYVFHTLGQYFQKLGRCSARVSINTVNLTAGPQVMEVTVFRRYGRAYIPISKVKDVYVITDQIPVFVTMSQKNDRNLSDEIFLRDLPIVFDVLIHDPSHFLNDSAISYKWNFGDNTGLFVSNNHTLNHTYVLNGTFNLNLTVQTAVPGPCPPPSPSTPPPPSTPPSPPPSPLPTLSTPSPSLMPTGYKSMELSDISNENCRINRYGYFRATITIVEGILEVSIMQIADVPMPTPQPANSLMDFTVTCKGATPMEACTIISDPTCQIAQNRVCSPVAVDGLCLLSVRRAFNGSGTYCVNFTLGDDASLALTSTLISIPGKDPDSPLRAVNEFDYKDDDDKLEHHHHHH


Key:
[1] = molecular target: T1, recombinant human soluble gpNMB (human …); assay: SPR single-cycle kinetics, gpNMB-FLAG-His captured, 1:1 model
[2] = molecular target: T2, recombinant mouse soluble gpNMB (mouse …); assay: as above

| Kd [1] [nM] | koff [1] [s⁻¹] | kon [1] [M⁻¹ s⁻¹] | Kd [2] [nM] | koff [2] [s⁻¹] | kon [2] [M⁻¹ s⁻¹] | Binder |
| --- | --- | --- | --- | --- | --- | --- |
| 0.488 | 0.000253 | 519000 | 5.05 | 0.000879 | 174000 | GPN06-1 (antibody, V domains shown, anti-gpNMB monoclonal antibody) VH: QVQLQQPGAEIVRPGASVKLSCKASGYTFTDNWMGWVKQRPGQGLEWIGAIDPSDSFTNYNQNFKGKATLTVDTSSSTAYMQLSSLTSEDSAVYFCTRSGYYGSPKLGGDYWGQGTTLTVSS VL: QIVLTQSPAIMSASLGEEITLTCSASSSISYMHWYQQKSGTSPKLLIYSTSNLASGVPSRFSGSGSGTFYSLTISSVEAEDAADYYCHQWNSYPCTFGGGTKLEIK |
| 0.366 | 3.55e-05 | 96900 | 8.5 | 0.000307 | 36100 | GPN05-1 (antibody, V domains shown, anti-gpNMB monoclonal antibody) VH: QVQLQQSGAELVRPGTSVKVSCKASGYAFSNHLIEWVKQRPGQGLEWIGVINPGSGGTNYIEKFKGKATLTADKSSSTAYMQLSSLTSDDSAVYFCARGANWDVGFAYWGQGTLVTVSA VL: EIQMTQSPSSMSASLGDRITITCQATQDIVKNLNWYQQKPGKPPSFLIYYATELAEGVPSRFSGSGSGSDFSLTISNLESEDFADYYCLQFHEFPRTFGGGTKLEIK |

Reference: patent publication EP4772536A1 (Teijin Pharma Limited, dated 2026)
